According to patent US20230340137A1 (published 2023):

Molecular target: T1, B-cell maturation antigen (BCMA) (human, UniProt Q02223 1-184)
T1 sequence (looked up): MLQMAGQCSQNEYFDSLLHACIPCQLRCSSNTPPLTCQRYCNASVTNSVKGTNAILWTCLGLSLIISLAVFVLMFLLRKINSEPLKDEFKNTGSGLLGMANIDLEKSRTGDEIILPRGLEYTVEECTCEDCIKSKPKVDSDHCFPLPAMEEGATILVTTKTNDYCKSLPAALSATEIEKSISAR
Assay: cell-based or functional assay

B1: PF-06863135 (bispecific antibody, human IgG2)
heavy 1: EVQLLESGGGLVQPGGSLRLSCAASGFTFSSYPMSWVRQAPGKGLEWVSAIGGSGGSLPYADIVKGRFTISRDNSKNTLYLQMNSLRAEDTAVYYCARYWPMDIWGQGTLVTVSSASTKGPSVFPLAPCSRSTSESTAALGCLVKDYFPEPVTVSWNSGALTSGVHTFPAVLQSSGLYSLSSVVTVPSSNFGTQTYTCNVDHKPSNTKVDKTVERKCEVECPECPAPPVAGPSVFLFPPKPKDTLMISRTPEVTCVVVAVSHEDPEVQFNWYVDGVEVHNAKTKPREEQFNSTFRVVSVLTVVHQDWLNGKEYKCKVSNKGLPSSIEKTISKTKGQPREPQVYTLPPSREEMTKNQVSLTCEVKGFYPSDIAVEWESNGQPENNYKTTPPMLDSDGSFFLYSKLTVDKSRWQQGNVFSCSVMHEALHNHYTQKSLSLSPGK
light 1: EIVLTQSPGTLSLSPGERATLSCRASQSVSSSYLAWYQQKPGQAPRLLMYDASIRATGIPDRFSGSGSGTDFTLTISRLEPEDFAVYYCQQYQSWPLTFGQGTKVEIKRTVAAPSVFIFPPSDEQLKSGTASVVCLLNNFYPREAKVQWKVDNALQSGNSQESVTEQDSKDSTYSLSSTLTLSKADYEKHKVYACEVTHQGLSSPVTKSFNRGEC
heavy 2: EVQLVESGGGLVQPGGSLRLSCAASGFTFSDYYMTWVRQAPGKGLEWVAFIRNRARGYTSDHNPSVKGRFTISRDNAKNSLYLQMNSLRAEDTAVYYCARDRPSYYVLDYWGQGTTVTVSSASTKGPSVFPLAPCSRSTSESTAALGCLVKDYFPEPVTVSWNSGALTSGVHTFPAVLQSSGLYSLSSVVTVPSSNFGTQTYTCNVDHKPSNTKVDKTVERKCRVRCPRCPAPPVAGPSVFLFPPKPKDTLMISRTPEVTCVVVAVSHEDPEVQFNWYVDGVEVHNAKTKPREEQFNSTFRVVSVLTVVHQDWLNGKEYKCKVSNKGLPSSIEKTISKTKGQPREPQVYTLPPSREEMTKNQVSLTCLVKGFYPSDIAVEWESNGQPENNYKTTPPMLDSDGSFFLYSRLTVDKSRWQQGNVFSCSVMHEALHNHYTQKSLSLSPGK
light 2: not shown
- EC50 of cell viability (killing) of H929-Luc cells co-cultured with human CD3+ T cells, 72 hr, luminescence; with GSI: 0.0055 nM
- EC50 of cell viability (killing) of H929-Luc cells co-cultured with human CD3+ T cells, 72 hr, luminescence; without GSI: 0.167 nM
- EC50 of cell viability (killing) of Molp8-Luc cells co-cultured with human CD3+ T cells, 72 hr, luminescence; with GSI: 0.0202 nM
- EC50 of cell viability (killing) of Molp8-Luc cells co-cultured with human CD3+ T cells, 72 hr, luminescence; without GSI: 0.108 nM
- EC50 of cell viability (killing) of OPM2-Luc cells co-cultured with human CD3+ T cells, 72 hr, luminescence; with GSI: 0.0033 nM
- EC50 of cell viability (killing) of OPM2-Luc cells co-cultured with human CD3+ T cells, 72 hr, luminescence; without GSI: 0.0528 nM
- EC50 of cell viability (killing) of RPMI8226-Luc cells co-cultured with human CD3+ T cells, 72 hr, luminescence; with GSI: 0.0017 nM
- EC50 of cell viability (killing) of RPMI8226-Luc cells co-cultured with human CD3+ T cells, 72 hr, luminescence; without GSI: 0.0092 nM
